Values belong to the binder of their own block, whether it stands above or below them. Ends that are not written are not given here. * marks the point of attachment. X1 = (RS)‑2,3‑di(palmitoyloxy)propyl, CCCCCCCCCCCCCCCC(=O)OCC(C*)OC(=O)CCCCCCCCCCCCCCC
Target: mouse TLR2 on a murine dendritic cell line (mouse, UniProt Q9QUN7 25-784)
Experiment: cell-based or functional assay

Sequence of mouse TLR2 on a murine dendritic cell line (Q9QUN7 25-784): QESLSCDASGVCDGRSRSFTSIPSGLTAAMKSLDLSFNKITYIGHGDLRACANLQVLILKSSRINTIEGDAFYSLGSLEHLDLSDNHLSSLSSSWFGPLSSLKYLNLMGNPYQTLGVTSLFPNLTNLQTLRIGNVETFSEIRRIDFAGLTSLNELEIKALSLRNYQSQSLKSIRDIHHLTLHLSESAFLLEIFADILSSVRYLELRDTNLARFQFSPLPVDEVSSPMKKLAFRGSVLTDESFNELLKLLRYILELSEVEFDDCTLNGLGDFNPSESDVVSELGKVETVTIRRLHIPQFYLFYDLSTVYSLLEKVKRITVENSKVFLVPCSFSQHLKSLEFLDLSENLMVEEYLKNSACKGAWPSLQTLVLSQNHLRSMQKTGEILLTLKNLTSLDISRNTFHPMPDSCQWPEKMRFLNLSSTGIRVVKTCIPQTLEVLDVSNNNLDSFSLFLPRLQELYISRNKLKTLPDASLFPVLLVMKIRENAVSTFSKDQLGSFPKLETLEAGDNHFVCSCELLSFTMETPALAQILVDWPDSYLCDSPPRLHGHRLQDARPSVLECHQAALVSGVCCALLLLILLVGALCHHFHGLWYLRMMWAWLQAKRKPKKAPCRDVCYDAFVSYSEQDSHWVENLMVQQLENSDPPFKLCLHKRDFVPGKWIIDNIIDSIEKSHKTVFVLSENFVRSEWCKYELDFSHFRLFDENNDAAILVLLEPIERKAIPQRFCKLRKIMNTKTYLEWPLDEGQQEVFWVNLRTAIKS

IL-12 in supernatant of a murine dendritic cell line after 24 h (sandwich ELISA); concentration needed for similar stimulation, against Pam3CysSK4: 100 fold | IL-12 in supernatant of a murine dendritic cell line after 24 h (sandwich ELISA); maximal stimulation level against Pam3CysSK4: 2 fold
B1: U-Pam-12 (1-dodecadecyl-urea-Cys((RS)-2,3-di(palmitoyloxy)-propyl)-Ser-Lys-Lys-Lys-Lys-NH2) (peptide)
peptide: C(X1)SKKKK-NH2
modifications: not fully specified (N-terminus); printed as 1-dodecadecyl-urea-Cys((RS)-2,3-di(palmitoyloxy)-propyl)-Ser-Lys-Lys-Lys-Lys-NH2; also: epimer mixture at C-2 of dipalmitoyloxypropyl

IL-12 in supernatant of a murine dendritic cell line after 24 h (sandwich ELISA); concentration needed for similar stimulation, against Pam3CysSK4: 100 fold | IL-12 in supernatant of a murine dendritic cell line after 24 h (sandwich ELISA); maximal stimulation level against Pam3CysSK4: 2 fold
B2: U-Pam-14 (1-tetradecyl-urea-Cys((RS)-2,3-di(palmitoyloxy)-propyl)-Ser-Lys-Lys-Lys-Lys-NH2) (peptide)
peptide: {1‑tetradecyl‑urea}-C(X1)SKKKK-NH2
modifications: also: epimer mixture at C-2 of dipalmitoyloxypropyl

From patent US20160250325A1 (ISA PHARMACEUTICALS B V, published 2016)
